Tests used:
[1] = target: α270(L21P) in construct A (E. coli, UniProt P10443 1-270, Leu21Pro); test: crystal structure
[2] = target: α270 in construct A (εCTS35–α270) (E. coli, UniProt P10443 1-270); test: NMR
β2 sliding clamp = β2 sliding clamp (E. coli, UniProt P0A988 1-366); test: SEC
His6-αGL = His6-αGL (E. coli, UniProt P10443 1-1160, A921L | M923L | Val832Gly); test: pull-down
α270-His6 = α270-His6 (E. coli, UniProt P10443 1-270); test: NMR

ASKLRVVFATDEEIAAHEARLDLVQKKGGSCLWRA (domain or fragment) [εCTS35 (residues 209–243 of ε) in construct A]: binds [1]; binds [2].

ATIQRIVRQASKLRVVFATDEEIAAHEARLDLVQKKGGSCLWRA (domain or fragment) [εCTS44 (residues 200–243 of ε) in construct A]: binds [1].

B1: εL (natural protein)
chain: MSTAITRQIVLDTETTGMNQIGAHYEGHKIIEIGAVEVVNRRLTGNNFHVYLKPDRLVDPEAFGVHGIADEFLLDKPTFAEVADEFMDYIRGAELVIHNAAFDIGFMDYEFSLLKRDIPKTNTFCKVTDSLAVARKMFPGKRNSLDALCARYEIDNSKRTLHGALLDAQILAEVYLAMTGGQLSLPLAMEGETQQQQGEATIQRIVRQASKLRVVFATDEEIAAHEARLDLVQKKGGSCLWRA
B1: binds (β2 sliding clamp); binds (His6-αGL).

B2: εCTS59 (domain or fragment)
chain: MAFAMEGETQQQQGEATIQRIVRQASKLRVVFATDEEIAAHEARLDLVQKKGGSCLWRA
B2: binds (α270-His6).

Reference: PMC3664792 (Nucleic Acids Research, 2013)
